Measurements taken from paper PMC11971276 (Nature Communications, 2025).

B1: pamrevlumab (antibody, V domains shown)
VH: EGQLVQSGGGLVHPGGSLRLSCAGSGFTFSSYGMHWVRQAPGKGLEWVSGIGTGGGTYSTDSVKGRFTISRDNAKNSLYLQMNSLRAEDMAVYYCARGDYYGSGSFFDCWGQGTLVTVSS
VL: DIQMTQSPSSLSASVGDRVTITCRASQGISSWLAWYQQKPEKAPKSLIYAASSLQSGVPSRFSGSGSGTDFTLTISSLQPEDFATYYCQQYNSYPPTFGQGTKLEIK

What was measured:
[1] = target: recombinant CCN2 (UniProt P29279); assay: ELISA
[2] = target: Human CCN2 tagged with human Fc (human) (UniProt P29279); assay: SPR
Sequence of Human CCN2 tagged with human Fc (human) (P29279 27-349): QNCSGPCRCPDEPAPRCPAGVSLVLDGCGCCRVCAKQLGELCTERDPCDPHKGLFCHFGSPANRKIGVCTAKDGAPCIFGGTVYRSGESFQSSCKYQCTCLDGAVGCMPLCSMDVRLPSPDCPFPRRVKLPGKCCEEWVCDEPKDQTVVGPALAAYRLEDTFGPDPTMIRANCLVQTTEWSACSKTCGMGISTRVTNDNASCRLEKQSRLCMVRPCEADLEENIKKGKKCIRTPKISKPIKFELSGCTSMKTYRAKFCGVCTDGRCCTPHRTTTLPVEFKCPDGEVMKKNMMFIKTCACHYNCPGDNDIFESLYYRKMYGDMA

[3] = target: human CCN2 (R&D Systems) (human) (UniProt P29279); assay: electrochemiluminescence assay
Sequence of human CCN2 (R&D Systems) (human) (P29279 27-349): as above

[4] = target: biotinylated human CCN2 (human) (UniProt P29279); assay: competition electrochemiluminescence assay
Sequence of biotinylated human CCN2 (human) (P29279 27-349): as above

[5] = target: biotinylated human CCN2 (Homo sapiens, UniProt P29279, biotin (sites not given)); assay: competition electrochemiluminescence assay
Sequence of biotinylated human CCN2 (P29279 27-349): as above

Sequence of recombinant CCN2 (P29279 27-349): as above

Row | Molecule | EC50 [1] [nM] | Kd [2] [nM] | fold higher affinity than pamrevlumab [2] [fold] | fold slower dissociation than pamrevlumab [2] [fold] | relative potency [%], post-nebulization [3] [%] | IC50 [4] [nM] | IC50 [5] [nM]
1 | PRS-220 (designed binder) | 0.39 | 0.06 | 364 | 169 | 100 | 0.35 | 
2 | B1 |  |  |  |  |  |  | 1.14
